# From US20090117111A1 (XOMA TECHNOLOGY, published 2009)
# B1: monoclonal antibody CHIR-12.12 (antibody, human IgG1, kappa)
# heavy: not shown
# light: DIVMTQSPLSLTVTPGEPASISCRSSQSLLYSNGYNYLDWYLQKPGQSPQVLISLGSNRASGVPDRFSGSGSGTDFTLKISRVEAEDVGVYYCMQARQTPFTFGPGTKVDIRRTVAAPSVFIFPPSDEQLKSGTASVVCLLNNFYPREAKVQWKVDNALQSGNSQESVTEQDSKDSTYSLSSTLTLSKADYEKHKVYACEVTHQGLSSPVTKSFNRGEC
# notes: Fully human IgG1 kappa anti-CD40 antibody; also called CH12.12
# Tests used:
# human FcγRIIIa-158F [1] = target: T1, human FcγRIIIa-158F (human, UniProt P08637 17-208, limits assumed); assay: Biacore (SPR); ratio of KD against rituximab
# T1 construct: also called FcγRIIIa aa158F allele
# human FcγRIIIa-158V = target: T2, human FcγRIIIa-158V (human, UniProt P08637 17-208); assay: Biacore (SPR)
# T2 construct: also called FcγRIIIa aa158V allele
# human FcγRIIIa-158F [2] = target: T1, human FcγRIIIa-158F; assay: Biacore (SPR)
# T1 sequence (P08637 17-208 limits assumed): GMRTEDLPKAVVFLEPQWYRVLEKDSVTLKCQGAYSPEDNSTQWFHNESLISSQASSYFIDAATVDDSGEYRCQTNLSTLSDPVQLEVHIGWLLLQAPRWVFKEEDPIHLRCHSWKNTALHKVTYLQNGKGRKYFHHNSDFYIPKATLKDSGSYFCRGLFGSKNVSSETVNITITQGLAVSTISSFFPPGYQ
# T2 sequence (P08637 17-208 F176V): as the sequence (P08637 17-208 limits assumed) above, with F160V counted along it
binder,measurement,setting,value
B1,fold higher affinity compared with rituximab,human FcγRIIIa-158F [1],4.6 fold
same,Kd,human FcγRIIIa-158V,492 nM
same,Kd,human FcγRIIIa-158F [2],2800 nM
